{
  "source": "patent US20030186419",
  "target": "rMBL-rMASP-2 complexes, P11226",
  "sequence (P11226 21-248, chain 1 of 2)": "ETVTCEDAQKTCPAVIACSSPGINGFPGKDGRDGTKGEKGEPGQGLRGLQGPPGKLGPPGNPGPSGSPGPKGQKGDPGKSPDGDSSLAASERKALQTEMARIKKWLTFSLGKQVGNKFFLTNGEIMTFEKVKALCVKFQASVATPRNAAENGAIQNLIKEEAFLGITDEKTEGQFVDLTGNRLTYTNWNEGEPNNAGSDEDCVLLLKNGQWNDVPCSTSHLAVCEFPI",
  "sequence (chain, as listed by the source, chain 2 of 2)": "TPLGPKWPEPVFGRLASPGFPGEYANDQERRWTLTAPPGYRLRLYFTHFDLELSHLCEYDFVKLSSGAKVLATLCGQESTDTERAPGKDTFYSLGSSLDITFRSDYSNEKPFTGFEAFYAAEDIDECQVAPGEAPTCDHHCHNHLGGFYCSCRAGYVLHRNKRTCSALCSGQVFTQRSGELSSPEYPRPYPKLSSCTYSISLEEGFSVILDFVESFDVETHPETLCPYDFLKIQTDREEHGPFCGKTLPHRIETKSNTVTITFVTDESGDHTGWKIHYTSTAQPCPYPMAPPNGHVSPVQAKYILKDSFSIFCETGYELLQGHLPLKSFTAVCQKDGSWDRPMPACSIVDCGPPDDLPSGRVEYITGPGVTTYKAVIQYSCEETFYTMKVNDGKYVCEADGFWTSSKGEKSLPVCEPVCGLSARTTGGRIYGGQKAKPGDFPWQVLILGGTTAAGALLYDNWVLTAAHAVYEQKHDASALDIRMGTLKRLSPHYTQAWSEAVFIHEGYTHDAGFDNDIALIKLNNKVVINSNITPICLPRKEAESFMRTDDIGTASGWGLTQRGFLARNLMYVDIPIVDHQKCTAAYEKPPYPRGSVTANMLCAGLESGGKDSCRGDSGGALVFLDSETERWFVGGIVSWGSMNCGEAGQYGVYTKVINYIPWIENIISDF",
  "data": [
    {"protein": "GSGALLSASWILTAAHVLRSQRRDTTVIPVSKEHVTVYL", "note": "[rMASP-3 (recombinant MASP-3 from HEK 293EBNA cells transfected with the pMASP-3; 4.1 construct)]", "values": [
      {"measurement": "activation of C4 by rMBL-rMASP-2 complexes (bound C4 on mannan-coated wells, Eu-labelled anti-C4 antibody)", "value": "The activity of rMBL-rMASP-2 complexes was also inhibited by rMASP-3"}
    ]}
  ]
}
